Measured values from article PMC3375335, “The Interdomain Linker of AAV-2 Rep68 Is an Integral Part of Its Oligomerization Domain: Role of a Conserved SF3 Helicase Residue in Oligomerization” (PLoS Pathogens, 2012).
Where two headings read alike, the source gives them in different places.

Key:
[1] = biological target: Rep68Y224A (adeno-associated virus 2 (AAV-2)) (UniProt P03132); assay: AUC
[2] = biological target: Rep68ΔN214 (adeno-associated virus 2 (AAV-2)) (UniProt P03132); assay: AUC
Rep68ΔN209 = biological target: T1, Rep68ΔN209 (Adeno-associated virus 2 Srivastava/1982, UniProt P03132); type: binding; conditions: 36 µM protein, 200 mM NaCl, pH 8.0, 20 °C
T1 construct: gene Rep68; residues 210-536, part of linker plus helicase domain; pET-15b, E. coli BL21(DE3)

Rep68ΔN200 = biological target: T2, Rep68ΔN200 (Adeno-associated virus 2 Srivastava/1982, UniProt P03132); type: binding; conditions: 36 µM protein, 200 mM NaCl, pH 8.0, 20 °C
T2 construct: gene Rep68; Rep68 without the OBD: full interdomain linker plus helicase domain, to residue 536; start 201 read from the name; pET-15b, E. coli BL21(DE3); also printed Rep68Δ200, RepΔN200

[3] = biological target: OBD-linker (residues 1-224) of AAV-2 Rep68 (adeno-associated virus 2 (AAV-2)) (UniProt P03132); assay: AUC; sedimentation velocity without nucleotide, 40,000 rpm, 20°C, 25 mM Tris-HCl pH 8.0, 200 mM NaCl, 2 mM TCEP; c(s) by sedfit; constants from a global fit (sedphat) to a monomer-dimer model: dimer to monomers
[4] = biological target: Rep68ΔN209 (adeno-associated virus 2 (AAV-2)) (UniProt P03132); assay: AUC
[5] = biological target: Rep68ΔN200 (adeno-associated virus 2 (AAV-2)) (UniProt P03132); assay: cross-linking; DMP (dimethyl pimelimidate), 30 fold molar excess, 60 min at room temperature, protein 2 mg/ml, 25 mM HEPES, 200 mM NaCl, pH 8.0; 8% SDS-PAGE
[6] = biological target: Rep68ΔN200 (adeno-associated virus 2 (AAV-2)) (UniProt P03132); assay: AUC; sedimentation velocity without nucleotide, 40,000 rpm, 20°C, 25 mM Tris-HCl pH 8.0, 200 mM NaCl, 2 mM TCEP; c(s) by sedfit; constants from a global fit (sedphat) to a monomer-dimer model: dimer to monomers
[7] = biological target: Rep68ΔN200 (adeno-associated virus 2 (AAV-2)) (UniProt P03132); assay: AUC
AAV-2 Rep40 [8] = biological target: T3, AAV-2 Rep40 (adeno-associated virus 2 (AAV-2), UniProt P03132 225-536); assay: AUC; sedimentation velocity without nucleotide, 40,000 rpm, 20°C, 25 mM Tris-HCl pH 8.0, 200 mM NaCl, 2 mM TCEP; c(s) by sedfit; constants from a global fit (sedphat) to a monomer-dimer model: dimer to monomers; conditions: both partners purified
AAV-2 Rep40 [9] = biological target: T3, AAV-2 Rep40; assay: as above; conditions: both partners purified; remark: listed apart in the source

“Rep68Y224A (from UniProt P03132 1-536) (natural protein)” was tested, and the stoichiometry N [1] was 2.

With “Rep68ΔN214 (from UniProt P03132 215-536) (domain or fragment)” the stoichiometry N [2] was 2.

For `Nc1ncnc2c1ncn2[C@@H]1O[C@H](COP(=O)(O)OP(=O)(O)OP(=O)(O)O)[C@@H](O)[C@H]1O` [ATP], the “sedimentation velocity ultracentrifugation, nucleotide-induced oligomerization” value (Rep68ΔN209; 5 mM ATP) was “ATP on the other hand, seems to generate more stable species at ∼7S” and the “sedimentation velocity ultracentrifugation, nucleotide-induced oligomerization” value (Rep68ΔN200; 5 mM ATP) was “ATP on the other hand, seems to generate more stable species at ∼7S”.

“OBD-linker (residues 1-224) of AAV-2 Rep68 (from UniProt P03132 1-224) (domain or fragment)” gave a stoichiometry N [3] of 2.

In the case of `Nc1ncnc2c1ncn2[C@@H]1O[C@H](COP(=O)(O)OP(=O)(O)O)[C@@H](O)[C@H]1O` [ADP], the “sedimentation velocity ultracentrifugation, nucleotide-induced oligomerization” value (Rep68ΔN209; 5 mM ADP) is reported as “ADP produces two main populations sedimenting at ∼3S and ∼7S” and the “sedimentation velocity ultracentrifugation, nucleotide-induced oligomerization” value (Rep68ΔN200; 5 mM ADP) is reported as “ADP produces two main populations sedimenting at ∼3S and ∼7S”.

“Rep68ΔN209 (from UniProt P03132 210-536) (domain or fragment)” was tested, and the stoichiometry N [4] was 2.

“Rep68ΔN200 (from UniProt P03132 201-536) (domain or fragment)” showed a stoichiometry N [5] of 2, a Kd [6] of 79 µM and a logKa [6] of 4.1. For the same molecule, the stoichiometry N [6] was 2 and the stoichiometry N [7] was 2.

B1: AAV-2 Rep40 (natural protein)
chain: MELVGWLVDKGITSEKQWIQEDQASYISFNAASNSRSQIKAALDNAGKIMSLTKTAPDYLVGQQPVEDISSNRIYKILELNGYDPQYAASVFLGWATKKFGKRNTIWLFGPATTGKTNIAEAIAHTVPFYGCVNWTNENFPFNDCVDKMVIWWEEGKMTAKVVESAKAILGGSKVRVDQKCKSSAQIDPTPVIVTSNTNMCAVIDGNSTTFEHQQPLQDRMFKFELTRRLDHDFGKVTKQEVKDFFRWAKDHVVEVEHEFYVKKGGAKKRPAPSDADISEPKRVRESVAQPSTSDAEASINYADRLARGHSL
modifications: Start at 225 follows from the text; the C-terminus of the assayed Rep40 is not given, so full-length Rep40 (to 536) is taken; 225-490 is given only for the crystal structure 1S9H. ATP or ADP added …
With B1 the Kd (AAV-2 Rep40 [8]) was 730 µM and the “stoichiometry N” value (AAV-2 Rep40 [9]) was 2.
